Reference: US5591613A, “Method for the preparation of D-arginine and L-ornithine” (Degussa Aktiengesellschaft, priority 1990, dated 1997)

Substrate: N=C(N)NCCC[C@H](N)C(=O)O
Test: Arginase-catalysed hydrolysis of L-Arg to L-Orn, initial rates in batch, with and without inhibitors
Assay type: biochemical, calf
Conditions: other: nonlinear regression of initial rate data with L-Arg; 25.0 °C
Protocol: In further experiments, the materials used were: Calf liver arginase (activity 110 U/mg) which was obtained from Boehringer Mannheim (Mannheim, F.R.G.). Amino acids were from Rexim (Ham, France). MnSO4, MnO2, and ascorbic acid were from E. Merck (Darmstadt, F.R.G.).
Batch conditions used were: Starting pH value, except for the activity-pH curve, was either 11.5, the natural value for L-Arg in water, or 9.5, adjusted from pH 11.5 with conc. HCl. The temperature was 25° C. unless otherwise noted. Typical concentrations of L-Arg were 0.75M. Unless otherwise mentioned, [Mn2^+ ]=5-10^-4 M. Reaction progress was followed by HPLC (amino column, mobile phase: phosphate buffer (pH 6.4)/acetonitrile).
Kinetic data was obtained as follows: Initial rate data were analyzed by a non-linear regression method (Marquardt routine) with the program OPTI (U. Giesecke, KFA J ulich).
A linear slope of 1/[S] vs. [I] plot distinguishes a purely competitive inhibition mechanism from a partially competitive one. Simultaneously, the apparent and the intrinsic KM -value are proportional to [I] according to equation (5) from which the inhibition constant KI can be calculated
Since the runs have been conducted at [LArg]=50 mM=2·Km,intr,Vo =Vmax ·2·KM,intr /(KM,intr (3+[I]/KI))=Vmax ·2/(3+[I]/KI). At [I]=KI, Vo =Vmax 2/(3+1)=Vmax /2. So, KI can be calcuated with sufficient accuracy from a Vo vs. [I] plot such as FIG. 4.

B1: Calf liver arginase (Bos taurus) (protein)
chain: MSSKPQSIGVIGAPFSKGQPRGGVEEGPTVLRKAGLLEKLKELECDVKDYGDLSFADNLDDSPFQIVKNPRCVGKASEKLADVVAEVKKTGRISLVLGGDHSLAIGSISGHARVHPDLCVIWVDAHTDINTPLTTKTGNLHGQPVSFLLKELKEKMPEVPGFYWVAPCISAKDIVYIGLRDVDPGEHYILKTLGIKYFSMTEVDKLGIGKVMEETFSYLLGRKKRPIHLSFDVDGLDPSFTPATGTPVQGGLTYREGLYITEEIYKTGLLSGLDIMEVNPSLGKTPEEVTRTVNTTVAITMACFGVAREGNHKPIDYLSPPK
notes: purchased Boehringer Mannheim (Mannheim, F.R.G.)
- Km: 25.5 mM
- kcat: 1200 s⁻¹
